Reference: the DeepSol protein solubility set

Assay: soluble on expression in E. coli; label from the status in PepcDB or PDB records

| Sequence | soluble on expression in E. coli |
| --- | --- |
| PREEVARIHASSGTTGKPTVVGYTKNDLKVFAEVVARSLAAAGARPGMMLHNAYGYGLFTGGLGLHGGAEALGMTVVPVSGGMTERQVMLIQDFRPEVISCTPSYAQTLAEEFRKRGVSPEELSLEYAVLGAEPWTEAIRKQVDEGLGVKSTNIYGLSEIIGPGVSNECVEERQGSHI | not soluble |
| PREFVLRPAPQGRTVRCRLTRDKKGMDRGMYPSYFLHLDTEKKVFLLAGRKRKRSKTANYLISIDPTNLSRGGENFIGKLRSNLLGNRFTVFDNGQNPQRGYSTNVASLRQELAAVIYETNVLGFRGPRRMTVIIPGMSAENERVPIRPRNASDGLLVRWQNKTLESLIELHNKPPVWNDDSGSYTLNFQGRVTQASVKNFQIVHADDPDYIVLQFGRVAEDAFTLDYRYPLCALQAFAIALSSFD | soluble |
| PRLTRRLTGFLPQEIKSIDTMIPLLSRALWNKHQVKKFNKAEDFQDRFIDHVETTLARSLYNCDDMVAYEAASMSIRDNLVIDWNKTQQKFTTRDPKRVYYLSLEFLMGRALDNALINMKIEDPEDPAASKGKPREMIKGALDELGFKLEDVLDQEPDAGLGNGGLGRLAACFVDSMATEGIPAWGYGLRYEYGIFAQKIIDGYQVETPDYWLNSGNPWEIERNEVQIPVTFYGYVDRPEGGKTTLSASQWIGGERVLAVAYDFPVPGFKTSNVNNLRLWQARPTTEFDLNKFNNGDYKNSVAQQQRAESITAVLYPNDNFAQGKELRLKQQYFWCAASLHDILRRFKKSKRPWTEFPDQVAIQLNDTHPTLAIVELQRVLVDLEKLDWHEAWDIVTKTFAYTNHTVMQEALEKWPRRLFGHLLPRHLEIIYDINWFFLEDVAKKFPKDVDLLSRISIIEENSPERQIRMAFLAIVGSHKVNGVVELHSELIKTTIFKDFIKFYGPSKFVNVTNGITPRRWLKQANPSLAKLISETLNDPTEEYLLDMAKLTQLEKYVEDKEFLKKWNQVKLNNKIRLVDLIKKENDGVDIINREYLDDTLFDMQVKRIHEYKRQQLNVFGIIYRYLAMKNMLKNGASIEEVARKYPRKVSIFGGKSAPGYYMAKLIIKLINCVADIVNNDESIEHLLKVVFVADYNVSKAEIIIPASDLSEHISTAGTEASGTSNMKFVMNGGLIIGTVDGANVEITREIGEDNVFLFGNLSENVEELRYNHQYHPQDLPSSLDSVLSYIESGQFSPENPNEFKPLVDSIKYHGDYYLVSDDFESYLATHELVDQEFHNQRSEWLKKSVLSLANVGFFSSDRCIEEYSDTIWNVEPVT | soluble |
| PRNQMPRIHASSGTTGKPTVVGYTKTDLDNWANLMARSMVGAGASPDDIVHNAYGYGLFTGGLGAHYGAERLGCTVVPASGGGTERQVQLIVDFGANVLCCTPSYALNIAEVAEQMGVSLKDAPLRVGLFGAEPWSDAMRRDLEARLGIKAVDVYGLSEIMGPGVACECH | not soluble |
| PSRPVRPNNRCFSCNKKVGVMGFKCKCGSTFCGSHRYPEKHECSFDFKEVG | soluble |
| PTNIHKIHEVQKKLQEEVSIVLIDIADIIVNPKKENGYSRDLYTLNSLIDSSISETYDNINNTLLSDTRFFLEHMDIIKSQRDILENLYSYVSQLNSTPPQAHILSAFIHKIGYTEFEAETGNLLLEELKRLMISMKNQPLPVDRTEFENRAILFLCLTELKQFLVNRKHAQML | soluble |
| PTRQVLQGSRCRLEPLTLAHASDLFAAHQLAPDARSWTWLLREPESNLAEFSAWVEQVATLADPIHFAVVDQQRGKAVGSLALMRIDIAHGVVEVGHVHFSPLLSRTAMATEAHWLLMQYVFDTLGYRRYEWKCNSLNIPSARAARRLGFQYEGRFRQALVSKGHNRDTDWFSVIDGEWPELDNAMRQWLAADNFTA | not soluble |
| QAGRFIGQEISGRLSSRSMLAVQIDDLLKLAARFVGEERARQSFIRFAYRQGKGFNPNQNADGEWIAHTERLLAGVLGASSTRAVVKAAIEGREMQLEDVVRIADEASEVLQFNRALLQGAIENITQGISVVDQSL | not soluble |
| QDSDSTAAVAVLKRAVELDAESRYQQALVCYQEGIDMLLQVLKGTKESSKRCVLRTKISGYMDRAENIKKYLDQEKEDGK | soluble |
| QDSTQNLIPAPPLISVPLQPGFWTERFQGRWFVVGLAGNAVQKERQSRFTMYSTIYELQEDNSYNVTSILVRGQGCRYWIRTFVPSSRPGQFTLGNIHSYPQIQSYDVQVADTDYDQFAMVFFQKTSENKQYFKVTLYGRTKGLSDELKERFVSFAKSLGLKDNNIVFSVPTDQCIDN | soluble |
| QEGYPFPSFHLRGTHPYRSILVSANTEALSPLLASAMDLARIFGSEVYVLFVSRVEAFMPPEEKELLENLKVLVERARKTSGLEVHLIRKEGNPVRETLRLLKGKFNLLALGYTPGRRTAFFRPYVPQLLAQASPVSTLLVPEVNLER | not soluble |
| QFLQKQHFLILGLAKSGYAAASILHEKGIYVAVNDQKPFEENEPAQKLSEKGIEVVCGEHPVSLFDQHQITILIKNPGIPYENIMVQEAEKRGIPVW | not soluble |
| QGQPLANFEGGQPMEALQQWTAAVVKAVEGKLPGITGDDAEAEPAEDPRFEPATEALNAGDFDAAIAVYEEILRHEPKNQMALQARDNARLLSRLKDADRSVDPIAVADADLQDVDKAFAAADAEITTGKVEEAFDRLIELLPNEKVRTRLLELYSVFEPSDSRVQAARSKMASKLF | not soluble |
| QHLNALMNKEILGKKPGKKKKDKTKRPVLYVIDFSGDIKATQVEQLRDEVTSVLSIAKPEDEVLVRLESPGGAVNGYGLAASQLQRIRDKKIPLTVSIDKMAASGGYLMACVANKIIAAPFAIIGSIGVVAQIPNFHRWLKKNNIDVELLTAGEYKRTLTLFAENTEKGRKKFQEDLEKIHTAFREYVLKNRSQLDIDKVATGEHWIAKDAFDLRLVDKLATSDE | not soluble |
| QIVDATEALMHDQNSQRITLNMVNSLALHWWIPRMPRLQTYAPQLDVRLSNLSGRFNLEQEGVDAALVHGNPEEWQDYYCEKLSEDELVLVCSPDLIDHSNPVNLSDILKTYPLIEVTNERRKHDWQVWSDATGVARPKNKKPITFNMSIQAVQATTRRLGVLVTHRLFVKDDIKYGQLIELGEPVINPNQQLYFVCPPHKLKQESFHLLRSWLKQEFA | soluble |
| QLGKDHAIVERNEKIDDAFKSDPASYQSVYDAQGRIKDGQEWMRVSLKGRFDANNEVLLRMRPVEGTPAYQSLVPFTLESGESLLINRGFVPGDAANVPELAAVPTETVTIVAHARANEGMPASAPMSAHGYQQVYGINTTQISEITHTTLGTDFAQLSQDQPGVLNAMPIPQLDRGNHLSYGLQ | not soluble |
| QLLEPIRDFEARKCPVHGKTMELFCQTDQTCICYLCMFQEHKNHSTVTVEEAKAEKETE | soluble |
| QLSAGCGELSPQIGGGWLWSSMHRSGRYGTQQQRAGSKTAGPPCQWSRMASEGTNIPSPVVRQIDKQFLICSICLERYKNPKVLPCLHTFCERCLQNYIPAHSLTLSCPVCRQTSILPEKGVAALQNNFFITNLMDVLQRTPGSNAEESSILETVTAVAAGKPLSCPNHDGNVMEFYCQSCETAMCRECTEGEHAEHPTVPLKDVVEQHKASLQVQLDAVNKRLPEIDSALQFISEIIHQLTNQKASIVDDIHSTFDELQKTLNVRKSVLLMELEVNYGLKHKVLQSQLDTLLQGQESIKSCSNFTAQALNHGTETEVLLVKKQMSEKLNELADQDFPLHPRENDQLDFIVETEGLKKSIHNLGTILTTNAVASETVATGEGLRQTIIGQPMSVTITTKDKDGELCKTGNAYLTAELSTPDGSVADGEILDNKNGTYEFLYTVQKEGDFTLSLRLYDQHIRGSPFKLKVIRSADVSPTTEGVKRRVKSPGSGHVKQKAVKRPASMYSTGKRKENPIEDDLIFRVGTKGRNKGEFTNLQGVAASTNGKILIADSNNQCVQIFSNDGQFKSRFGIRGRSPGQLQRPTGVAVHPSGDIIIADYDNKWVSIFSSDGKFKTKIGSGKLMGPKGVSVDRNGHIIVVDNKACCVFIFQPNGKIVTRFGSRGNGDRQFAGPHFAAVNSNNEIIITDFHNHSVKVFNQEGEFMLKFGSNGEGNGQFNAPTGVAVDSNGNIIVADWGNSRIQVFDGSGSFLSYINTSADPLYGPQGLALTSDGHVVVADSGNHCFKVYRYLQ | soluble |
| QMEEGFVCFKLLYDVKKNRISIDDAVAENGVLPLMKHISWQFDKLPHMLIAGGTGGGKTYFMLTIIKACVGLGADVRILDPKNADLADLEEVLPKKVYSQKNGILMCLRKSVDGMMERMDEMKQMSNYKTGENYAYLGLKPVFIFFDEYVAFMDLLDMKERNEALSYMKQLVMLGRQAGYFLVLGAQRPDA | not soluble |
| QMQMGLSSFDRVMDVVDMTAEHPDPEHPLDLPAGPLSLELENVHFDGILNGTTLTVPAGDTVAIVGPPGSGKTMAVQLLCGFYRPESGQIRLGGVDTTQLRRHDLRNAVSCVFDDPFLYSASIRDNIAMGRNVTDVEIERAARIAQAHDFITALPHGYDEIVGERGLTLSGGQRQRIAIARAVLERPRVLILDDATSAIDVTTEHAIYEQLSTELSDVTILAVAHRNSTLSLADSVALIDNGRIVDHGSLSYMRANPQFVYLMDVQEHLRKRNSHEPFVPFDDGTEPEWTQLWPEIASSQHDSRLTINSSAMKAAASVAGANPAAGGRGRGRGGMAASIPATPELLARVDALPPTRDTPGPRPLLDHDHGKVTAHQLFASVR | not soluble |
| QMTARDVYLPVAAQPSVDTLVGMSQQAEDRGYDRVWLPETWGRDAVTTLTSIAEHTSTVGLGSSILNVYSRSPALLGQTAATLQEVSDGRFRAGVGPSGPIVIEGWHGREFESPLKYTRETVDIMKQVLSGETVDYDGDIFSLSGFRLRCEPPEPAPPVDAGGLGPKSVELAGRFADGWHALMLTADGLRDRLEDFEHGADLGDRDRADQRVTLSLTCCAMDDREQARELARQHVAFYIGGMGTFYRDALARQGYEDTAYEIAEQWGSGNKGAAVDAISDELLDSIAVAGTPEDCRDRIAQFEDIDGVDAINISFPRAAERDTIDTTIDVL | not soluble |
| QMTLTELRAFLDQMNNLPCAMHQIGDVKGVLEQVEAYQAEAREALASLPSSPGLLQSLLERGRQLGVEVPEAQQLQRQVEQARWLDEVKRTLAPSARRGTLAVMRGLLVAGASVAPSPAVDKAQAELQELLTIAERWEEKAHLCLEARQKHPPATLEAIIREAENIPVHLPNIQALKEALAKARAWIADVDEIQNGDHYPCLDDLEGLVAVGRDLPVGLEELRQLELQVLTAHSWREKASKTFLKKNS | not soluble |
| QSDEWRRTTRLLGEILEDTTRPPLERLRRLVLAFVRSECEEAAIRVALSDAAPLYRDADEAREVKAEGARVFQAFLREALPEVAEAERSLAGDLLTTTLGAVGKQFSEQPRSEAEIERYAEALADMLCAYLAALGER | not soluble |
| QVQLQQPGAELVKPGASVKLSCKASGYTFTSDWIHWVKQRPGHGLEWIGEIIPSYGRANYNEKIQKKATLTADKSSSTAFMQLSSLTSEDSAVYYCARERGDGYFAVWGAGTTVTVSSAKTTPPSVYPLAPGSAAQTNSMVTLGCLVKGYFPEPVTVTWNSGSLSSGVHTFPAVLQSDLYTLSSSVTVPSSSWPSETVTCNVAHPASSTKVDKKIVPRD | soluble |
| QVTVQSSPNFTQHVREQSLVTDQLSRRLIRTYQLYSRTSGKHVQVLANKRINAMAEDGDPFAKLIVETDTFGSRVRVRGAETGLYICMNKKGKLIAKSNGKGKDCVFTEIVLENNYTALQNAKYEGWYMAFTRKGRPRKGSKTRQHQREVHFMKRLPRGHHTTE | soluble |
| RADTLIYMTVNPKTNTTDMVSIPRDTYTKIIGKGTMDKINHSYAFGGTQMTVDTVENFLDVPVDYFVKVNMESFRDVVDTLGGITVNSTFAFSYDGYSFGKGEITLNGKEALAYTRMRKEDPRGDFGRQDRQRQVIQGIINKGAN | not soluble |
